In patent US8114974B2, “Engineered microorganisms with enhanced fermentation activity” (Verdezyne, Inc., priority 2009, dated 2012):
Values joined by “and” are separate entries in the source; they are usually repeats but may differ in a detail not shown here. Equal entries are not always repeated.

Columns and labels:
C5 strain = test: In vivo evaluation of xylose isomerase constructs in C5 strain, fermentation on xylose; assay type: cell-based, Saccharomyces cerevisiae; settings: final sample at 372 hours
Excerpt: The engineered strain was designed to include the following genetic modifications: the native Pho13 gene (alkaline phosphatase specific for p-nitrophenyl phosphate) was disrupted by inserting a construct containing the native TLK1 gene (Transketolase-1); the native aldose reductase gene (Gre3) was disrupted by inserting a construct containing the native high-affinity glucose transporter-7 gene (HXT7); the native glucose-repressible alcohol dehydrogenase II gene (adh2) was disrupted by inserting a construct containing the native xylulokinase gene (XYLK); and the native orotidine-5′ phosphate decarboxylase gene (ura3) was disrupted by inserting a construct containing the native transaldolase 1 gene (TAL1). The resulting strain had the following genotype: pho13::TKL1, gre3::HXT7, adh2::XYLK, ura3::TAL1.
The C5 strain was transformed using standard protocols with either p426GPD (as a control) or the chimeric variants XI-R, XI-Rp5, XI-Rp10, or XI-Rp15. The transformed cells were grown on SC-glucose minus uracil initially and then passaged onto SC-xylose minus uracil. Cultures of each of the above constructs were made in SC-xylose minus uracil—and grown for one week. The cultures were grown aerobically at 30° C. with 250 rpm agitation, 1 vvm sparge of process air, 21% O2. The pH was controlled at about 5.0 with 1N NaOH. […] At 24 hours elapsed fermentation time the fermentation was switched to anaerobic conditions.
Oxygen was purged with 100% N2 sparge at 1 vvm until percent O2 was below 1%. Aeration was then set at 0.25 vvm 100% N2.
The final sample also measured biomass by dry cell weight.

xylose isomerase [1] = test: In vitro xylose isomerase activity assay (sorbitol dehydrogenase/NADH coupled, A340; Km, specific activity, Ki for xylitol); assay type: biochemical, Saccharomyces cerevisiae
Method: About 20 μg of soluble whole cell extract was incubated in the presence of 100 mM Tris, pH 7.5, 10 mM MgCl2, 0.15 mM NADH (Sigma, St. Louis, Mo.), and about 2 U sorbitol dehydrogenase (Roche) at about 30° C. […] A Beckman DU-800 was utilized with an Enzyme Mechanism software package (Beckman Coulter, Inc.), and the change in the A340 was monitored for 2-3 minutes.
Approximately 20 μg of soluble whole cell extract from each transformed cell line, prepared using Y-PER plus reagent as described above, was incubated in a solution containing about 100 mM Tris, pH 7.5, 10 mM MgCl ? 2, 0.15 mM NADH (Sigma, St. Louis, Mo.), and 2 U Sorbitol Dehydrogenase (SDH) (Roche, Indianapolis, Ind.) at about 30° C. […] A Beckman DU-800 spectrophotometer was utilized with an Enzyme Mechanism software package (Beckman Coulter, Inc, Brea, Calif.), and the change in the A340 was monitored for 2-3 minutes.
Approximately 20 μg of soluble whole cell extract from each transformed cell line was prepared using Y-PER plus reagent as described above was incubated in a solution containing about 100 mM Tris, pH 7.5, 10 mM MgCl2, 0.15 mM NADH (Sigma, St. Louis, Mo.), and 2 U sorbitol dehydrogenase (SDH) (Roche, Indianapolis, Ind.) at about 30° C. […] A Beckman DU-800 spectrophotometer was utilized with an Enzyme Mechanism software package (Beckman Coulter, Inc, Brea, Calif.), and the change in the A340 was monitored for 2-3 minutes.
Approximately 20 μg of soluble whole cell extract from each transformed cell line was prepared using Y-PER plus reagent as described above was incubated in a solution containing about 100 mM Tris, pH 7.5, 10 mM MgCl ? .2, 0.15 mM NADH (Sigma, St. Louis, Mo.), and 2 U Sorbitol Dehydrogenase (SDH) (Roche, Indianapolis, Ind.) at about 30° C. […] A Beckman DU-800 spectrophotometer was utilized with an Enzyme Mechanism software package (Beckman Coulter, Inc, Brea, Calif.), and the change in the A340 was monitored for 2-3 minutes.
The Clostridiales enzyme was further characterized at 1974 μg to confirm the presence of activity.

xylose isomerase [2] = test: Heterologous xylose isomerase expression in yeast (active yes/no); assay type: cell-based, Saccharomyces cerevisiae; settings: xylose isomerase of the donor organism expressed in engineered yeast (S. cerevisiae)

B1: Ruminococcus flavefaciens: native xylose isomerase from Ruminococcus flavefaciens strain 17 (SEQ ID NO: 31) (protein, listed as Ruminococcus flavefaciens)
chain: MEFFSNIGKIQYQGPKSTDPLSFKYYNPEEVINGKTMREHLKFALSWWHTMGGDGTDMFGCGTTDKTWGQSDPAARAKAKVDAAFEIMDKLSIDYYCFHDRDLSPEYGSLKATNDQLDIVTDYIKEKQGDKFKCLWGTAKCFDHPRFMHGAGTSPSADVFAFSAAQIKKALESTVKLGGNGYVFWGGREGYETLLNTNMGLELDNMARLMKMAVEYGRSIGFKGDFYIEPKPKEPTKHQYDFDTATVLGFLRKYGLDKDFKMNIEANHATLAQHTFQHELRVARDNGVFGSIDANQGDVLLGWDTDQFPTNIYDTTMCMYEVIKAGGFTNGGLNFDAKARRGSFTPEDIFYSYIAGMDAFALGFRAALKLIEDGRIDKFVADRYASWNTGIGADIIAGKADFASLEKYALEKGEVTASLSSGRQEMLESIVNNVLFSL
- Glucose (C5 strain): 0 g/L
- Dry Cell Wt (C5 strain; listed as XI-R): 2.20 g/L and 2.03 g/L
- Ethanol (C5 strain; listed as XI-R): 15.65 g/L and 15.5 g/L
- Xylose (C5 strain; listed as XI-R): 3.14 g/L and 3.85 g/L
- Specific Activity (xylose isomerase [1]; soluble whole cell extract, xylose 40-500 mM, 30° C., pH 7.5): 1.718 µmol/min/mg
- Specific Activity (xylose isomerase [1]; total soluble crude extracts from S. cerevisiae, xylose concentrations between 40 and 500 nM (so in the source), Michaelis Mentin plots): 0.9605 µmol/min/mg
- Active? (yes/no) (xylose isomerase [2]): Yes
